# Results published in patent US20260151519A1 (AKTIS ONCOLOGY, published 2026).
# Primed or numbered codes have the meaning given here. Where no end group is shown, it is not given here. [ ]: non-standard residue; d: D form. The star is where a group is joined. Biotin = O=C1N[C@H]2[C@H](CS[C@H]2CCCCC(=O)*)N1; Lys(Me3) = C[N+](C)(C)CCCC[C@H](N)C(=O)O; PEG4′ = not defined here
# T1: PLPP3 (human, UniProt O14495 1-311)
# T1 construct: whole, on cells
# T1 sequence (looked up): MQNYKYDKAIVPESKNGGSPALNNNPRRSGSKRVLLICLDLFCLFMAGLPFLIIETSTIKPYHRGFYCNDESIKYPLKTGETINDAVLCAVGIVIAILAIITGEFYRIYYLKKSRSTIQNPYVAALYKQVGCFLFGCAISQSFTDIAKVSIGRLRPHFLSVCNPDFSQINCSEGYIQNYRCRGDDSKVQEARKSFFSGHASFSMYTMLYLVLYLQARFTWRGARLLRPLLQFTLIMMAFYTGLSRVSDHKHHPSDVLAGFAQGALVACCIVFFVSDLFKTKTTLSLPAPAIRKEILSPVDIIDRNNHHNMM
# T2: MFSD2B (human, UniProt A6NFX1 1-504)
# T2 construct: whole, on cells
# T2 sequence (looked up): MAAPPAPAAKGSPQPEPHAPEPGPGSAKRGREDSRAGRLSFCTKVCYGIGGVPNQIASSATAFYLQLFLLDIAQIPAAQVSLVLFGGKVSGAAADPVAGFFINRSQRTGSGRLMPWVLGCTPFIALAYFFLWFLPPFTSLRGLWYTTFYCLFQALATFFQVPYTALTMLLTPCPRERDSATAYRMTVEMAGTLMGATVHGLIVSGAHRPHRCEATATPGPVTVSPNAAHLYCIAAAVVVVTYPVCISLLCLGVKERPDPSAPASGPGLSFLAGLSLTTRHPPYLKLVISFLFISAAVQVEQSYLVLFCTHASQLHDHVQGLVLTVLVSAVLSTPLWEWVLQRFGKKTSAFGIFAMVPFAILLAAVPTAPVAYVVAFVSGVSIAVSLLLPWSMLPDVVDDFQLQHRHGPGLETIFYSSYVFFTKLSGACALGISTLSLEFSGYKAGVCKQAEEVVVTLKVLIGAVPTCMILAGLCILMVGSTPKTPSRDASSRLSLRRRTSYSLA
# T3: Human Nectin-4 expressed on cells (human, UniProt Q96NY8 32-510)
# T3 construct: Endogenous on HT-1376 cells; also called endogenous Nectin-4 on HT-1376 cells; cell surface Nectin-4
# T3 sequence: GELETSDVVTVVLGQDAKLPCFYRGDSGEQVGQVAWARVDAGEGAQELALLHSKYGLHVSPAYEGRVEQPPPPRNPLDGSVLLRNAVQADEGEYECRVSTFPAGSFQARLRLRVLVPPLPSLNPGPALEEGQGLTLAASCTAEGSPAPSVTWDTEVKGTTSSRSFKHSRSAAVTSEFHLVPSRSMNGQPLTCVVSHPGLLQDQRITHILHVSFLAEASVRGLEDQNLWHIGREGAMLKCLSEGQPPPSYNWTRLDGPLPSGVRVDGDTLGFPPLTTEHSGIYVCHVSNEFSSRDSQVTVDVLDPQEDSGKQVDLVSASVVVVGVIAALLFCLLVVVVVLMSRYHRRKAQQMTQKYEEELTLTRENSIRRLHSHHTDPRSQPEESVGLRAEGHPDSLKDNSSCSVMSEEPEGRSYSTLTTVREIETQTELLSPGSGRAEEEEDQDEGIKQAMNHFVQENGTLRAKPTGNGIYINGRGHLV
# Biological target: T1, PLPP3
# Assay: cell microarray on HEK293 cells
# Description: (§1) Initially, two pools of compounds were tested. […] To perform this assay, HEK293 cells were plated on a dish and localized spots of cells were transiently over-expressed with a single cDNA encoding for GFP and one of the 6,416 targets. Included in this library were multiple clones for the Nectin family members, including plasma membrane, non-tethered secreted, and tethered secreted forms of Nectin-1, 2, 3, and 4. Secreted protein targets were tethered to the plasma membrane to aid in detection. The molecule pools were incubated on the fixed, over-expressing cell microarrays (n=2 per protein), and binding was visualized using Alexa Fluor 647 streptavidin fluorescence.
row,Binder,binding result
1,"{Biotin-PEG4′}-CEYDEEFFTALARLRGGDICQYIQA[Lys(Me3)]FQYLPALCIEEILDNLGCS (designed binder, cysteine pairing not given here) [C253]",no binding (tested: 2 µg/mL)
2,"{Biotin-PEG4′}-CDYDEQFFTALKRLRGADICEYIQASFQYLPGECIEEILDNLGCS (designed binder, cysteine pairing not given here) [C208]",no binding (tested: 2 µg/mL)
3,"{Biotin-PEG4′}-CDYDEQFFTALKRLRGGDICEYIQASFQYLPGLCIEEILDNLGCS (designed binder, cysteine pairing not given here) [C190]",no binding (tested: 2 µg/mL)
4,"{Biotin-PEG4′}-CEYDEQFFTALKRLRGDDICDYIQASFQYLPGLCIEEILDNLGCS (designed binder, cysteine pairing not given here) [C197]",no binding (tested: 2 µg/mL)
5,"{Biotin-PEG4′}-CDYDEQFFTALARLRGADICEYIQASFQYLPGECIEEILDNLGCS (designed binder, cysteine pairing not given here) [C247]",no binding (tested: 2 µg/mL)

# Biological target: T4, IGF2 (human, UniProt P01344 25-91)
# T4 construct: whole, on cells; Secreted targets were tethered to the plasma membrane
# T4 sequence (P01344 25-91): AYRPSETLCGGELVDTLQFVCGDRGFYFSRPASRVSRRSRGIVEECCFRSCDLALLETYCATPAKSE
# Assay: cell microarray on HEK293 cells
# Description: as §1
row,Binder,binding result
1,"{Biotin-PEG4′}-CEYDEEFFTALARLRGGDICQYIQA[Lys(Me3)]FQYLPALCIEEILDNLGCS (designed binder, cysteine pairing not given here) [C253]",no binding (tested: 2 µg/mL)
2,"{Biotin-PEG4′}-CDYDEQFFTALKRLRGADICEYIQASFQYLPGECIEEILDNLGCS (designed binder, cysteine pairing not given here) [C208]",no binding (tested: 2 µg/mL)
3,"{Biotin-PEG4′}-CDYDEQFFTALKRLRGGDICEYIQASFQYLPGLCIEEILDNLGCS (designed binder, cysteine pairing not given here) [C190]",no binding (tested: 2 µg/mL)
4,"{Biotin-PEG4′}-CEYDEQFFTALKRLRGDDICDYIQASFQYLPGLCIEEILDNLGCS (designed binder, cysteine pairing not given here) [C197]",no binding (tested: 2 µg/mL)
5,"{Biotin-PEG4′}-CDYDEQFFTALARLRGADICEYIQASFQYLPGECIEEILDNLGCS (designed binder, cysteine pairing not given here) [C247]",no binding (tested: 2 µg/mL)

# Biological target: T5, IGFBP3 (human, UniProt P17936 28-291)
# T5 construct: whole, on cells; Secreted targets were tethered to the plasma membrane
# T5 sequence (P17936 28-291): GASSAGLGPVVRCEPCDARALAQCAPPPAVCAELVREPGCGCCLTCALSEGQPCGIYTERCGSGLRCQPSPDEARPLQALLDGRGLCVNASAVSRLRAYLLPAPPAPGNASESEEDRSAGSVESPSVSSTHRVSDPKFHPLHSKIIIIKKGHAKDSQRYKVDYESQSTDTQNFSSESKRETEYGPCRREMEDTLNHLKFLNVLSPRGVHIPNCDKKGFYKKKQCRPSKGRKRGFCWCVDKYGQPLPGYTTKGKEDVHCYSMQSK
# Assay: cell microarray on HEK293 cells
# Description: as §1
row,Binder,binding result
1,"{Biotin-PEG4′}-CEYDEEFFTALARLRGGDICQYIQA[Lys(Me3)]FQYLPALCIEEILDNLGCS (designed binder, cysteine pairing not given here) [C253]",no binding (tested: 2 µg/mL)
2,"{Biotin-PEG4′}-CDYDEQFFTALKRLRGADICEYIQASFQYLPGECIEEILDNLGCS (designed binder, cysteine pairing not given here) [C208]",no binding (tested: 2 µg/mL)
3,"{Biotin-PEG4′}-CDYDEQFFTALKRLRGGDICEYIQASFQYLPGLCIEEILDNLGCS (designed binder, cysteine pairing not given here) [C190]",no binding (tested: 2 µg/mL)
4,"{Biotin-PEG4′}-CEYDEQFFTALKRLRGDDICDYIQASFQYLPGLCIEEILDNLGCS (designed binder, cysteine pairing not given here) [C197]",no binding (tested: 2 µg/mL)
5,"{Biotin-PEG4′}-CDYDEQFFTALARLRGADICEYIQASFQYLPGECIEEILDNLGCS (designed binder, cysteine pairing not given here) [C247]",no binding (tested: 2 µg/mL)

# Biological target: T2, MFSD2B
# Assay: cell microarray on HEK293 cells
# Description: as §1
row,Binder,binding result
1,"{Biotin-PEG4′}-CEYDEEFFTALARLRGGDICQYIQA[Lys(Me3)]FQYLPALCIEEILDNLGCS (designed binder, cysteine pairing not given here) [C253]",no binding (tested: 2 µg/mL)
2,"{Biotin-PEG4′}-CDYDEQFFTALKRLRGADICEYIQASFQYLPGECIEEILDNLGCS (designed binder, cysteine pairing not given here) [C208]",no binding (tested: 2 µg/mL)
3,"{Biotin-PEG4′}-CDYDEQFFTALKRLRGGDICEYIQASFQYLPGLCIEEILDNLGCS (designed binder, cysteine pairing not given here) [C190]",no binding (tested: 2 µg/mL)
4,"{Biotin-PEG4′}-CEYDEQFFTALKRLRGDDICDYIQASFQYLPGLCIEEILDNLGCS (designed binder, cysteine pairing not given here) [C197]",no binding (tested: 2 µg/mL)
5,"{Biotin-PEG4′}-CDYDEQFFTALARLRGADICEYIQASFQYLPGECIEEILDNLGCS (designed binder, cysteine pairing not given here) [C247]",no binding (tested: 2 µg/mL)

# Biological target: T3, Human Nectin-4 expressed on cells
# Assay: competition binding assay (DELFIA, fluorescence at 615 nm) on HT-1376 cells: 12 concentrations of C253 against 10 nM Eu-labelled C307 as the displaced tracer
# Description: (§2) A competition binding assay was utilized to determine the Kᵢ for miniproteins bound to Nectin-4 expressed on the surface of cancer cells. […] Miniprotein incubations occurred for 90 min to reach binding equilibrium. […] After miniprotein incubations, the wells were washed to remove unbound ligand and treated according to manufacturer instructions for a DELFIA® (dissociation-enhanced lanthanide fluorescent immunoassay, Revvity Health Sciences). In brief, washed wells were incubated with 15 μL of 2 M HCl for 2 h at 37° C., after which 17 μL of 2 M NaOH and 30 μL of DELFIA® enhancement solution were added to each well and incubated for an additional 30 min. The remaining Eu reacted with the DELFIA® enhancer solution to generate fluorescence measured on the Envision instrument. Relative fluorescence units (RFUs) were measured as a function of test article concentration in order to calculate an IC50. The Ki can then be calculated using the Cheng-Prusoff equation for converting a measured IC50 to Ki: […]
row,Binder,IC50 (read off the curve)
1,"{Biotin-PEG4′}-CEYDEEFFTALARLRGGDICQYIQA[Lys(Me3)]FQYLPALCIEEILDNLGCS (designed binder, cysteine pairing not given here) [C253]",~2 nM

# Biological target: T3, Human Nectin-4 expressed on cells
# Assay: DELFIA competition against 10 nM C307, HT-1376 cells
# Description: as §2
row,Binder,Ki
1,"{Biotin-PEG4′}-CEYDEEFFTALARLRGGDICQYIQA[Lys(Me3)]FQYLPALCIEEILDNLGCS (designed binder, cysteine pairing not given here) [C253]",0.82 nM

# Biological target: T3, Human Nectin-4 expressed on cells
# Assay: flow cytometry dose response, biotinylated C253 detected with Strep-PE, Delta MFI = C253 MFI minus vehicle MFI, HT-1376-P cells
# Description: Fluorescent imaging for Nectin-4 binding was conducted using assays as described in Example 3. Briefly, Nectin-4 knockout HT-1376 cells were generated via CRISPR/Cas9 mediated gene deletion followed by single cell cloning. […] Flow cytometry was performed to measure on-target binding to cell surface Nectin-4. […]
row,Binder,EC50 (read off the curve)
1,"{Biotin-PEG4′}-CEYDEEFFTALARLRGGDICQYIQA[Lys(Me3)]FQYLPALCIEEILDNLGCS (designed binder, cysteine pairing not given here) [C253]",~0.8 nM
